In paper PMC6145688:

Target: Recombinant active autotaxin-β (ATXβ), Q13822
Assay: cell adhesion assay; plates coated with recombinant ATXβ; cells in HEPES-buffered Tyrode solution with 2 mM Mn2+, rested 1 h at 37° C, seeded 1 h, attached cells counted; cells preincubated 1 h with blocking antibodies (10 µg/mL) or peptides (50 µg/mL)
Settings: remark: other sources report otherwise

percent inhibition of DU145 cell adhesion on ATXβ by LM609 (anti-αvβ3): 60% | percent inhibition of KHOS cell adhesion on ATXβ by LM609 (anti-αvβ3): 15%
B1: Integrin αvβ3, P06756 31-1048; P05106 27-788 (receptor)
chain 1: FNLDVDSPAEYSGPEGSYFGFAVDFFVPSASSRMFLLVGAPKANTTQPGIVEGGQVLKCDWSSTRRCQPIEFDATGNRDYAKDDPLEFKSHQWFGASVRSKQDKILACAPLYHWRTEMKQEREPVGTCFLQDGTKTVEYAPCRSQDIDADGQGFCQGGFSIDFTKADRVLLGGPGSFYWQGQLISDQVAEIVSKYDPNVYSIKYNNQLATRTAQAIFDDSYLGYSVAVGDFNGDGIDDFVSGVPRAARTLGMVYIYDGKNMSSLYNFTGEQMAAYFGFSVAATDINGDDYADVFIGAPLFMDRGSDGKLQEVGQVSVSLQRASGDFQTTKLNGFEVFARFGSAIAPLGDLDQDGFNDIAIAAPYGGEDKKGIVYIFNGRSTGLNAVPSQILEGQWAARSMPPSFGYSMKGATDIDKNGYPDLIVGAFGVDRAILYRARPVITVNAGLEVYPSILNQDNKTCSLPGTALKVSCFNVRFCLKADGKGVLPRKLNFQVELLLDKLKQKGAIRRALFLYSRSPSHSKNMTISRGGLMQCEELIAYLRDESEFRDKLTPITIFMEYRLDYRTAADTTGLQPILNQFTPANISRQAHILLDCGEDNVCKPKLEVSVDSDQKKIYIGDDNPLTLIVKAQNQGEGAYEAELIVSIPLQADFIGVVRNNEALARLSCAFKTENQTRQVVCDLGNPMKAGTQLLAGLRFSVHQQSEMDTSVKFDLQIQSSNLFDKVSPVVSHKVDLAVLAAVEIRGVSSPDHVFLPIPNWEHKENPETEEDVGPVVQHIYELRNNGPSSFSKAMLHLQWPYKYNNNTLLYILHYDIDGPMNCTSDMEINPLRIKISSLQTTEKNDTVAGQGERDHLITKRDLALSEGDIHTLGCGVAQCLKIVCQVGRLDRGKSAILYVKSLLWTETFMNKENQNHSYSLKSSASFNVIEFPYKNLPIEDITNSTLVTTNVTWGIQPAPMPVPVWVIILAVLAGLLLLAVLVFVMYRMGFFKRVRPPQEEQEREQLQPHENGEGNSET
chain 2: GPNICTTRGVSSCQQCLAVSPMCAWCSDEALPLGSPRCDLKENLLKDNCAPESIEFPVSEARVLEDRPLSDKGSGDSSQVTQVSPQRIALRLRPDDSKNFSIQVRQVEDYPVDIYYLMDLSYSMKDDLWSIQNLGTKLATQMRKLTSNLRIGFGAFVDKPVSPYMYISPPEALENPCYDMKTTCLPMFGYKHVLTLTDQVTRFNEEVKKQSVSRNRDAPEGGFDAIMQATVCDEKIGWRNDASHLLVFTTDAKTHIALDGRLAGIVQPNDGQCHVGSDNHYSASTTMDYPSLGLMTEKLSQKNINLIFAVTENVVNLYQNYSELIPGTTVGVLSMDSSNVLQLIVDAYGKIRSKVELEVRDLPEELSLSFNATCLNNEVIPGLKSCMGLKIGDTVSFSIEAKVRGCPQEKEKSFTIKPVGFKDSLIVQVTFDCDCACQAQAEPNSHRCNNGNGTFECGVCRCGPGWLGSQCECSEEDYRPSQQDECSPREGQPVCSQRGECLCGQCVCHSSDFGKITGKYCECDDFSCVRYKGEMCSGHGQCSCGDCLCDSDWTGYYCNCTTRTDTCMSSNGLLCSGRGKCECGSCVCIQPGSYGDTCEKCPTCPDACTFKKECVECKKFDRGALHDENTCNRYCRDEIESVKELKDTGKDAVNCTYKNEDDCVVRFQYYEDSSGKSILYVVEEPECPKGPDILVVLLSVMGAILLIGLAALLIWKLLITIHDRKEFAKFEEERARAKWDTANNPLYKEATSTFTNITYRGT
